Literature values as cited in PMC9260958.

Target: Cys647 (UniProt position 647, LGEVHCGTNVR)
Experiment: chemical modification (pH dependence of enzyme inactivation kinetics)
Settings: not stated (the inactivator is not named in the sentence that gives the value)

Protein arginine deiminase 2 (peptidylarginine deiminase 2, PAD2) (Homo sapiens (inferred; not stated in the article))
pKa: ∼8.2
